# Laboratory results taken from patent WO2005054294A2 (dated 2005).
# B1: hGP 5C4 Fab (Fab, V domains shown)
# VH: EVKLQESGGGLVQPGRSLKLSCTASGFTFSDYFMSWVRQAPTRGLEWVASISSGGASAYWRDSVKGRFTISRDNAKSALYLQMDSLRSEDTATYFCARGELDFDYWGQGVMVAVSS
# VL: ADPNSTLLSASVGDRVTLNCTASQNVYKNLAWYQQKLGEAPRLLLYSANSQTGIPSRFSGSGSGPDFTLTISSLQPEDVASYFCQQYYSGNTFGAGTKLELKR
# Target: T1, human platelet glycoprotein VI (human, UniProt Q9HCN6 21-339)
# T1 sequence (looked up): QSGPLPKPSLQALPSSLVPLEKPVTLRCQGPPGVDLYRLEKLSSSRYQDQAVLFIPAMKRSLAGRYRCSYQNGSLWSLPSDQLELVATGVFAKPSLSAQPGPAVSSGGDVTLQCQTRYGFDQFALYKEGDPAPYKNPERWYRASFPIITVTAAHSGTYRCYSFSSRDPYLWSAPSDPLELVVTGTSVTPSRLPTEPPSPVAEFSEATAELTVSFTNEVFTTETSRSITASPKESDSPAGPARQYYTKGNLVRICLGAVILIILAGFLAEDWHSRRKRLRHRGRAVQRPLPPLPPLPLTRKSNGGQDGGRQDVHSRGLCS
# Assay: cell-based or functional assay
binder,measurement,value
B1,IC50 of inhibition of collagen-induced (3 ug/ml) human platelet aggregation ex vivo,0.12 µg/mL
